Our source for the binding affinity ratio (IC50 of standard peptide / IC50 of test peptide) and binding affinity ratio values is patent publication US20070020327A1.

Read-outs that look alike come from different tables or passages of the source.

Test [1] concerns the target HLA-A*0201 (human). The test is described as follows: competition with 125I-labelled standard peptide 941.01 ([..]) for purified HLA-A*0201, gel filtration.
Test [2] concerns the target HLA-A*0202 (human). In words: competition with 125I-labelled standard peptide 941.01 ([..]) for purified HLA-A*0202, gel filtration.
Test [3] concerns the target HLA-A*0203 (human). The test is described as follows: competition with 125I-labelled standard peptide 941.01 ([..]) for purified HLA-A*0203, gel filtration.
Test [4] has as its target HLA-A*0206 (human). The test is described as follows: competition with 125I-labelled standard peptide 941.01 ([..]) for purified HLA-A*0206, gel filtration.
Test [5] deals with HLA-A*6802 (human). The test is described as follows: competition with 125I-labelled standard peptide 1072.34 ([..]) for purified HLA-A*6802, gel filtration.
Test [6] has as its target HLA-A*0201 (human). In words: competitive inhibition of 125I-labelled standard peptide binding to purified HLA, gel filtration; ratio = IC50 standard / IC50 test peptide.
Test [7] addresses HLA-A*0202 (human). Described as above.
Test [8] concerns the target HLA-A*0203 (human). The description is as above.
Test [9] concerns the target HLA-A*0206 (human). Described as above.
Test [10] has as its target HLA-A*6802 (human). Described as above. The following applies: remark: other sources report otherwise.

As for VASRGRAV (modifications not checked) [PSA peptide VASRGRAV (position 38, 8 amino acids)], the binding affinity ratio (IC50 of standard peptide / IC50 of test peptide) in test [1], in test [2], in test [3], in test [4] and in test [5] was -0.0001 in each case.
As for VAVYSHGWA (modifications not checked) [… (Kallikrein, position 40)], the binding affinity ratio in test [6] was -0.0001; in [7], -0.0001; in test [8], 0.0002; in test [9], 0.0002.
For the molecule VLGLPTQEPA (modifications not checked) [… (Kallikrein, position 138)], the binding affinity ratio was 0.0008 in test [6] (remark: other sources report otherwise) and -0.0001 in [10].
